From the Immune Epitope Database (IEDB)

Legend:
HLA-A*68:02 [1] = assay: IEDB peptide-MHC binding, purified MHC/direct/fluorescence; filed as Kd, often an IC50 or EC50 that approximates it; ≥ and ≤ were set here for values at or beyond the usual limits of such assays
HLA-B*15:01 = assay: as above
HLA-A*69:01 [2] = assay: as above
HLA-A*03:01 = assay: as above
HLA-A*01:01 = assay: as above
HLA-A*26:01 = assay: as above
HLA-B*18:01 [3] = assay: as above
HLA-A*11:01 = assay: as above
HLA-B*40:01 = assay: as above
HLA-A*02:01 [4] = assay: as above
HLA-B*57:01 [5] = assay: as above
HLA-B*44:02 = assay: as above
HLA-B*07:02 = assay: as above
HLA-B*58:01 = assay: as above
HLA-A*31:01 = assay: as above
HLA-B*48:01 = assay: as above
HLA-B*15:17 [6] = assay: as above
HLA-B*27:05 = assay: as above
HLA-B*08:01 [7] = assay: IEDB peptide-MHC binding, purified MHC/competitive/fluorescence; filed as Kd, often an IC50 or EC50 that approximates it; ≥ and ≤ were set here for values at or beyond the usual limits of such assays; details: source organism: Brucella canis ATCC 23365
HLA-B*15:09 = assay: as above
HLA-B*39:01 [8] = assay: as above
HLA-A*23:01 = assay: IEDB peptide-MHC binding, purified MHC/direct/fluorescence; filed as Kd, often an IC50 or EC50 that approximates it; ≥ and ≤ were set here for values at or beyond the usual limits of such assays
HLA-A*02:19 = assay: as above
HLA-A*29:02 = assay: as above; details: source organism: Orthohantavirus andesense
HLA-A*02:16 = assay: as above
HLA-A*24:03 = assay: as above
HLA-A*02:03 = assay: as above
HLA-A*02:11 = assay: as above
HLA-A*02:12 = assay: as above
HLA-A*69:01 [9] = assay: IEDB peptide-MHC binding, purified MHC/competitive/fluorescence; filed as Kd, often an IC50 or EC50 that approximates it; ≥ and ≤ were set here for values at or beyond the usual limits of such assays
HLA-B*18:01 [10] = assay: as above; details: source organism: Orthohantavirus andesense
HLA-B*35:01 = assay: as above
HLA-A*02:01 [11] = assay: as above
HLA-B*57:01 [12] = assay: as above; details: source organism: Orthohantavirus andesense
HLA-B*46:01 [13] = assay: as above; details: source organism: Orthohantavirus andesense
HLA-B*27:03 [14] = assay: as above
HLA-B*51:01 = assay: as above
HLA-B*08:01 [15] = assay: IEDB peptide-MHC binding, purified MHC/direct/fluorescence; filed as Kd, often an IC50 or EC50 that approximates it; ≥ and ≤ were set here for values at or beyond the usual limits of such assays; details: source organism: Coxiella burnetii Q321
HLA-B*39:01 [16] = assay: as above
HLA-A*68:02 [17] = assay: IEDB peptide-MHC binding, purified MHC/competitive/fluorescence; filed as Kd, often an IC50 or EC50 that approximates it; ≥ and ≤ were set here for values at or beyond the usual limits of such assays; details: source organism: Coxiella burnetii RSA 331
HLA-B*15:17 [18] = assay: as above; details: source organism: Coxiella burnetii RSA 331
HLA-B*46:01 [19] = assay: IEDB peptide-MHC binding, purified MHC/direct/fluorescence; filed as Kd, often an IC50 or EC50 that approximates it; ≥ and ≤ were set here for values at or beyond the usual limits of such assays; details: source organism: Giardia lamblia ATCC 50803
HLA-B*27:03 [20] = assay: as above; details: source organism: Giardia lamblia ATCC 50803
[21] = source organism: Brucella abortus 2308
[22] = source organism: Brucella canis ATCC 23365
[23] = source organism: Orthohantavirus andesense
[24] = source organism: Coxiella burnetii
[25] = source organism: Coxiella burnetii RSA 331
[26] = source organism: Giardia lamblia ATCC 50803
[27] = source organism: Zaire ebolavirus
[28] = source organism: Ebola virus - Gabon (1994-1997)

IEVKFHPIL
Kd (HLA-A*68:02 [1]; [21]): ≥ 20 µM | Kd (HLA-B*15:01; [21]): ≥ 20 µM | Kd (HLA-A*69:01 [2]; [21]): ≥ 20 µM | Kd (HLA-A*03:01; [21]): ≥ 20 µM | Kd (HLA-A*01:01; [21]): ≥ 20 µM | Kd (HLA-A*26:01; source organism: Brucella suis 1330): ≥ 20 µM | Kd (HLA-B*18:01 [3]; [21]): 0.006 µM | Kd (HLA-A*11:01; [21]): ≥ 20 µM | Kd (HLA-B*40:01; [21]): 0.013 µM | Kd (HLA-A*02:01 [4]; [21]): ≥ 20 µM | Kd (HLA-B*57:01 [5]; [21]): ≥ 20 µM | Kd (HLA-B*44:02; [21]): ≥ 20 µM | Kd (HLA-B*07:02; [21]): ≥ 20 µM | Kd (HLA-B*58:01; [21]): ≥ 20 µM | Kd (HLA-A*31:01; [21]): ≥ 20 µM | Kd (HLA-B*48:01; [21]): 0.534 µM | Kd (HLA-B*15:17 [6]; [21]): ≥ 20 µM | Kd (HLA-B*27:05; [21]): ≥ 20 µM | Kd (HLA-B*08:01 [7]): 0.811 µM | Kd (HLA-B*15:09; [22]): 0.0868 µM | Kd (HLA-B*39:01 [8]; [22]): 1.06 µM

DAVEDFLAF
Kd (HLA-A*23:01; [23]): ≥ 20 µM | Kd (HLA-A*02:19; [23]): ≥ 20 µM | Kd (HLA-A*29:02): ≥ 20 µM | Kd (HLA-A*68:02 [1]; [23]): ≥ 20 µM | Kd (HLA-A*03:01; [23]): ≥ 20 µM | Kd (HLA-A*26:01; [23]): 0.0126 µM | Kd (HLA-A*02:16; [23]): ≥ 20 µM | Kd (HLA-A*24:03; [23]): ≥ 20 µM | Kd (HLA-A*02:03; [23]): ≥ 20 µM | Kd (HLA-A*02:11; [23]): ≥ 20 µM | Kd (HLA-A*02:12; [23]): ≥ 20 µM | Kd (HLA-A*69:01 [9]; [23]): ≥ 20 µM | Kd (HLA-B*18:01 [10]): ≥ 20 µM | Kd (HLA-B*35:01; [23]): ≤ 0.0001 µM | Kd (HLA-A*02:01 [11]; [23]): ≥ 20 µM | Kd (HLA-B*57:01 [12]): ≥ 20 µM | Kd (HLA-B*39:01 [8]; [23]): ≥ 20 µM | Kd (HLA-B*46:01 [13]): ≥ 20 µM | Kd (HLA-B*27:03 [14]; [23]): ≥ 20 µM | Kd (HLA-B*51:01; [23]): ≥ 20 µM

HEGDIVPLF
Kd (HLA-B*15:01; [24]): 15 µM | Kd (HLA-A*69:01 [2]; [24]): ≥ 20 µM | Kd (HLA-A*03:01; [24]): ≥ 20 µM | Kd (HLA-A*01:01; [24]): ≥ 20 µM | Kd (HLA-A*11:01; [24]): ≥ 20 µM | Kd (HLA-B*40:01; [24]): 0.312 µM | Kd (HLA-A*02:01 [4]; [24]): ≥ 20 µM | Kd (HLA-B*08:01 [15]): ≥ 20 µM | Kd (HLA-B*57:01 [5]; [24]): ≥ 20 µM | Kd (HLA-B*44:02; [24]): 6 µM | Kd (HLA-B*07:02; [24]): ≥ 20 µM | Kd (HLA-B*39:01 [16]; source organism: Coxiella burnetii Q321): ≥ 20 µM | Kd (HLA-B*58:01; [24]): ≥ 20 µM | Kd (HLA-A*31:01; [24]): ≥ 20 µM | Kd (HLA-B*48:01; [24]): ≥ 20 µM | Kd (HLA-B*27:05; [24]): ≥ 20 µM | Kd (HLA-A*68:02 [17]): ≥ 20 µM | Kd (HLA-B*35:01; [25]): 0.183 µM | Kd (HLA-B*15:09; [25]): ≥ 20 µM | Kd (HLA-B*15:17 [18]): 0.644 µM

VLLISDPGL
Kd (HLA-A*68:02 [1]; [26]): ≥ 20 µM | Kd (HLA-B*15:01; [26]): ≥ 20 µM | Kd (HLA-A*69:01 [2]; [26]): ≥ 20 µM | Kd (HLA-A*03:01; [26]): ≥ 20 µM | Kd (HLA-A*26:01; [26]): ≥ 20 µM | Kd (HLA-B*18:01 [3]; [26]): ≥ 20 µM | Kd (HLA-A*24:03; [26]): ≥ 20 µM | Kd (HLA-A*02:03; [26]): ≥ 20 µM | Kd (HLA-B*57:01 [5]; [26]): ≥ 20 µM | Kd (HLA-A*02:11; [26]): ≥ 20 µM | Kd (HLA-B*39:01 [16]; [26]): ≥ 20 µM | Kd (HLA-B*46:01 [19]): ≥ 20 µM | Kd (HLA-B*27:03 [20]): ≥ 20 µM | Kd (HLA-B*15:17 [6]; [26]): 0.254 µM | Kd (HLA-A*02:12; [26]): ≥ 20 µM

TAAIMLASY
Kd (HLA-A*23:01; [27]): ≥ 20 µM | Kd (HLA-A*02:19; [27]): ≥ 20 µM | Kd (HLA-A*68:02 [1]; [27]): ≥ 20 µM | Kd (HLA-A*03:01; [27]): ≥ 20 µM | Kd (HLA-A*01:01; [28]): ≥ 20 µM | Kd (HLA-A*26:01; [28]): 1.29 µM | Kd (HLA-A*02:16; [27]): ≥ 20 µM | Kd (HLA-A*24:03; [27]): ≥ 20 µM | Kd (HLA-A*02:03; [27]): ≥ 20 µM | Kd (HLA-A*02:11; [27]): ≥ 20 µM | Kd (HLA-A*02:12; [27]): ≥ 20 µM | Kd (HLA-A*69:01 [9]; [27]): ≥ 20 µM | Kd (HLA-B*35:01; [27]): 0.0002 µM | Kd (HLA-A*02:01 [11]; [27]): ≥ 20 µM | Kd (HLA-B*39:01 [8]; [27]): ≥ 20 µM | Kd (HLA-B*27:03 [14]; [27]): ≥ 20 µM | Kd (HLA-B*51:01; [27]): ≥ 20 µM
